How the values were obtained:
[1] = target: T1, recombinant human αvβ3 integrin (human, UniProt P06756 31-992; P05106 27-718); test: SPR (Biacore)
T1 construct: Used in ELISA and immobilised on the Biacore chip; construct not described; also called hαvβ3; AVB3

[2] = target: T2, recombinant human αvβ6 integrin (human, UniProt P06756 31-992; P18564 22-707); test: SPR (Biacore)
T2 construct: Used in ELISA and immobilised on the Biacore chip; construct not described; also called hαvβ6; AVB6

[3] = target: recombinant human αvβ8 integrin (human) (UniProt P06756); test: SPR (Biacore), additional experiments
[4] = target: T3, recombinant mouse αvβ8 integrin (mouse, UniProt P43406 31-988; Q0VBD0 22-681, limits assumed); test: SPR (Biacore), additional experiments
T3 construct: Recombinant protein immobilised on the Biacore chip
Protocol: (§1) More specifically, recombinant αvβ8 integrin (e.g., R&D Systems) was biotin labeled via primary amines and immobilized on a Sensor Chip SA using a Biacore™ T200 instrument (GE Healthcare Life Sciences). Fab binding experiments were performed at 25° C. using a 30 μl/min flow rate in 0.01 M HEPES pH 7.4, 0.15 M NaCl, 1-2 mM MgCl₂, and 0.005% v/v surfactant P20 (HBS-P) buffer. Association was monitored for 5-10 minutes and dissociation for a further 15-20 minutes for each Fab concentration. After each injection, the chip surface was regenerated with IgG elution buffer (Thermo Fisher Scientific). All data was analyzed using the Biacore™ T200 Evaluation software. Data was dual background subtracted using the adjacent flow cell coupled with streptavidin without captured integrin, and buffer only injections. Kinetic constants for at least three experiments were obtained and reported as the mean.

[5] = target: T4, recombinant cynomolgus monkey αvβ8 integrin (cynomolgus monkey, limits assumed); test: SPR (Biacore), additional experiments
T4 construct: Recombinant protein immobilised on the Biacore chip; also called cyno αvβ8; cynomolgus αvβ8
T4 chain 1: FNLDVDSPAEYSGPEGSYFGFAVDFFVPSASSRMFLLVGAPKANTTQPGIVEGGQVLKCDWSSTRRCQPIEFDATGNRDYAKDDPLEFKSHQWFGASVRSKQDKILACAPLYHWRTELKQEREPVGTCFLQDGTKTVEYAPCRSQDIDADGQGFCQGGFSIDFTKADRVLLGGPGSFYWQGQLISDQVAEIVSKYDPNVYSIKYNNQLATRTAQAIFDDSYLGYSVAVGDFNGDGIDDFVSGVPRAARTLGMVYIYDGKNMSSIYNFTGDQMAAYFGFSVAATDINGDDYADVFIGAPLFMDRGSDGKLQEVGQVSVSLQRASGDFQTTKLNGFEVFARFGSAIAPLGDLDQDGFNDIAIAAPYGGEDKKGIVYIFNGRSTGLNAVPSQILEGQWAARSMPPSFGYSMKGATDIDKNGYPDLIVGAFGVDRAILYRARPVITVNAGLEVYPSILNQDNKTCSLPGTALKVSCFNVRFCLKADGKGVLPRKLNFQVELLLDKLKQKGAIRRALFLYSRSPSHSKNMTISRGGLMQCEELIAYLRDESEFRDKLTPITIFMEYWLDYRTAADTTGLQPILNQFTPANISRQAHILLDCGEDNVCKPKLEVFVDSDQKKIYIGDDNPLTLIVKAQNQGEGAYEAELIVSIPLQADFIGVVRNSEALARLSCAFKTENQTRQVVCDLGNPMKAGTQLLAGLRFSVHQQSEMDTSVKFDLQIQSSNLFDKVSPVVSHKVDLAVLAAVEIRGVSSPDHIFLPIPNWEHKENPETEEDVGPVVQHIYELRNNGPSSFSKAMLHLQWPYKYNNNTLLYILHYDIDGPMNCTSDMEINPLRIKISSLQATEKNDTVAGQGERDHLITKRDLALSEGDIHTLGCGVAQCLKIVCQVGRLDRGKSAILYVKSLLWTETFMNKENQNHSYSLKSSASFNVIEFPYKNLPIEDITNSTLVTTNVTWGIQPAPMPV
T4 chain 2: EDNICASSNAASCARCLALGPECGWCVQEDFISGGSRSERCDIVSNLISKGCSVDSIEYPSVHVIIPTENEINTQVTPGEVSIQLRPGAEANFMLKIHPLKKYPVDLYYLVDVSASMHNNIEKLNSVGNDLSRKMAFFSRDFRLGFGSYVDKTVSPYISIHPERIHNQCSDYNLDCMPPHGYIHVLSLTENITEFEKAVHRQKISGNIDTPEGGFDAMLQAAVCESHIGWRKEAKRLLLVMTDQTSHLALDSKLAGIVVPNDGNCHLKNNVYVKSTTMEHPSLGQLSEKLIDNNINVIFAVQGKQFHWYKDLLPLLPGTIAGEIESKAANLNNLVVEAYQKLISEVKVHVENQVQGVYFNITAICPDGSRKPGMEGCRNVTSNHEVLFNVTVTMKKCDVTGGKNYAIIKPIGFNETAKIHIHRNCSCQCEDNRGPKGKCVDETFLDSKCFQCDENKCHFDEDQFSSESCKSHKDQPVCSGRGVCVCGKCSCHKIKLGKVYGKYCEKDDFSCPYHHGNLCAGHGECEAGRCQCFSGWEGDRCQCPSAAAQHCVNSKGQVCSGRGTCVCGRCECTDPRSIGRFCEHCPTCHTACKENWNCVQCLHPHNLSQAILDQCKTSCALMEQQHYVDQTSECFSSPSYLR
Protocol: as §1

[6] = target: recombinant human αvβ8 integrin (human) (UniProt P06756); test: SPR (Biacore T200), Fab over biotinylated recombinant αvβ8 on streptavidin chip, n>=3
[7] = target: T3, recombinant mouse αvβ8 integrin; test: as above
Protocol: as §1
(§2) To evaluate the monomeric KD of the Fab ADWA11 2.4, also referred to herein as ADWA-11 VH05-2/VK01(2.4) and ADWA11 5-2 2.4, and the parental mouse IgG, recombinant human, cynomolgus, mouse, and rat αvβ8 was immobilized on a Biacore chip and the ka and kd of the Fabs were determined as generally described herein (Table 6).

[8] = target: T4, recombinant cynomolgus monkey αvβ8 …; test: as above
Protocol: as §1, §2

[9] = target: T5, recombinant rat αvβ8 integrin (rat, UniProt F1LZX9 31-987; A0A0G2JVU1 43-682); test: as above
T5 construct: Recombinant protein immobilised on the Biacore chip
Protocol: as §1, §2

[10] = target: human αvβ8 integrin on U251 cells (human, UniProt P06756 31-1048); test: flow cytometry, Fab binding to fixed U251 cells (MFI APC-A); EC50 unit inferred, axis Log10 [Ab] (nM)

T3 sequence (P43406 31-988 limits assumed, chain 1 of 2): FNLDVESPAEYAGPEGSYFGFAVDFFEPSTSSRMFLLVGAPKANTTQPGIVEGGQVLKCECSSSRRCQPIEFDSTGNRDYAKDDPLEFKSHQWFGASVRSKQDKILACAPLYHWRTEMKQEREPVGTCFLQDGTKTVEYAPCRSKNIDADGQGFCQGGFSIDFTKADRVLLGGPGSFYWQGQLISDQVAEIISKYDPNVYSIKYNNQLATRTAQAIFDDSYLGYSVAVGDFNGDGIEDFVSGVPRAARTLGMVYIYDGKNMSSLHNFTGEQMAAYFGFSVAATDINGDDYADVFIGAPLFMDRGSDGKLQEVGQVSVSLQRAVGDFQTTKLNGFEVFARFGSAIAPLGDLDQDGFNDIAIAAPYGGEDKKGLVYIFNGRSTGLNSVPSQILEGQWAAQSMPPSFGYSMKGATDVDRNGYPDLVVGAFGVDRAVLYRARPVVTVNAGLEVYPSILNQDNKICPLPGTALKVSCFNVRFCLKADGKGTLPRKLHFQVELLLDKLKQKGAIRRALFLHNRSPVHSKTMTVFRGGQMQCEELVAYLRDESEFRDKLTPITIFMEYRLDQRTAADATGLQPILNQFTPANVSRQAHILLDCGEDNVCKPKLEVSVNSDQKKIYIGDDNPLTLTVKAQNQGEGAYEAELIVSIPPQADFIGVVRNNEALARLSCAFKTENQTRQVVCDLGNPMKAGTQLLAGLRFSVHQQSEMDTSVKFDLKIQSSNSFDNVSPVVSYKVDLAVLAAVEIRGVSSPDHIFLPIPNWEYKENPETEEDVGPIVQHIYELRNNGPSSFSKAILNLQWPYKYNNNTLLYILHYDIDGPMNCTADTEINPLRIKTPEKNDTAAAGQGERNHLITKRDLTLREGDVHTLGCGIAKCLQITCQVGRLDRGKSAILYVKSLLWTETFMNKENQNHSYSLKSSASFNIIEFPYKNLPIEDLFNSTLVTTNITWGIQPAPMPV
T3 sequence (Q0VBD0 22-681 limits assumed, chain 2 of 2): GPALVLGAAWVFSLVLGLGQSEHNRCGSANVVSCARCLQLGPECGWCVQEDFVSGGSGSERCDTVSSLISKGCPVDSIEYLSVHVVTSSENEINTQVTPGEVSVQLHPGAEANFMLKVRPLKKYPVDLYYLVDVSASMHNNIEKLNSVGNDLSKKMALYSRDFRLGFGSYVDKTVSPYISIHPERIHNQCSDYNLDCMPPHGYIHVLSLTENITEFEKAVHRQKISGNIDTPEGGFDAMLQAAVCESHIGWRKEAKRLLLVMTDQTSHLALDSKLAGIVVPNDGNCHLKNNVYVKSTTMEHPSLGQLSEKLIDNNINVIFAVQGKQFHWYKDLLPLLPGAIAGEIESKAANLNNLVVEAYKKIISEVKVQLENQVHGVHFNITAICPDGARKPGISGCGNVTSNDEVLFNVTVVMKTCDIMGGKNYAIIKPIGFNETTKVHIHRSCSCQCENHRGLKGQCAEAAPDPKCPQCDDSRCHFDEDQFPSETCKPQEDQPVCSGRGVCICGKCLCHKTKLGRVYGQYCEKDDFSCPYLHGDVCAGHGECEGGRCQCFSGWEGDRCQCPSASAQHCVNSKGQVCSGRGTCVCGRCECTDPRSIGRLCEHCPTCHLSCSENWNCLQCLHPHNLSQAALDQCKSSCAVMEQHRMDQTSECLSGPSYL
T2 sequence (P18564 22-707 limits assumed, one chain of several): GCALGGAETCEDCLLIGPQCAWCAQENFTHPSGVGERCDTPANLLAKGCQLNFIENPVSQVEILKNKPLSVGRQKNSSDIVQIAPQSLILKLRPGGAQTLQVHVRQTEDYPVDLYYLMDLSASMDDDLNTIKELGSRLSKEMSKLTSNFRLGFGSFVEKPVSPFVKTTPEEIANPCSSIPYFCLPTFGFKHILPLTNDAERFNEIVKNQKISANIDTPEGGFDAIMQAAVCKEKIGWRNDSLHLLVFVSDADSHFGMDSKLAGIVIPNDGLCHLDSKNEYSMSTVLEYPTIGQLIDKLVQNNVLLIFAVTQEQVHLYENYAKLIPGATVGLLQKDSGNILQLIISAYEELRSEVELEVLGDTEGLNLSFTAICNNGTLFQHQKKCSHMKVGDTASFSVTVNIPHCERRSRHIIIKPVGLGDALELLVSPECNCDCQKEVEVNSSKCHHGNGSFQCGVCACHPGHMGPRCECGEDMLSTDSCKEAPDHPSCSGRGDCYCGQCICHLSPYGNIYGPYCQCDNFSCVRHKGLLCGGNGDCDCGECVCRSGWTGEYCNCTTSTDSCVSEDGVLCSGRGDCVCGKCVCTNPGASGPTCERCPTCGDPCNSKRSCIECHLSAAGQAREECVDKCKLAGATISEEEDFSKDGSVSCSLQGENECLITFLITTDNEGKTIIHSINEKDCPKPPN
T1 sequence (P05106 27-718 limits assumed, one chain of several): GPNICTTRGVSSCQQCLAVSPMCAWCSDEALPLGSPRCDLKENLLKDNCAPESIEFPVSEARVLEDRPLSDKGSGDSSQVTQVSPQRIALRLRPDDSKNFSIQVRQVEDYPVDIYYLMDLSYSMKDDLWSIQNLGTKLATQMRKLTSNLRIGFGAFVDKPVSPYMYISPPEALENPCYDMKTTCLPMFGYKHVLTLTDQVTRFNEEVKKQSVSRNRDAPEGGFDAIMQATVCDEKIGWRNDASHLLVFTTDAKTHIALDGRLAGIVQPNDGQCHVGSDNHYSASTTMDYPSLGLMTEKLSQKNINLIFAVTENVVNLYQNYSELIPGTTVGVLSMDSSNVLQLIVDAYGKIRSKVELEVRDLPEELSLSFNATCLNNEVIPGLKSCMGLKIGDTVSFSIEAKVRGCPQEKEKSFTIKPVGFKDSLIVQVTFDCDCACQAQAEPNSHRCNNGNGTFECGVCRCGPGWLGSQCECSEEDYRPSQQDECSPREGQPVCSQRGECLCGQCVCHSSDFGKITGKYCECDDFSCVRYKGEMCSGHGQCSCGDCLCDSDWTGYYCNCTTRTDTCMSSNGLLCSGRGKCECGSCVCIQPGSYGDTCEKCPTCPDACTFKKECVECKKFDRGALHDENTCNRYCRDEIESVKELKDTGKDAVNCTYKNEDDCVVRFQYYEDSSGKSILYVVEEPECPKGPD

- binding result [1]: no binding
- binding result [2]: no binding
- Kd [3]: < 0.1 nM
- Kd [4]: 0.0708 nM
- Kd [5]: < 0.1 nM
- Kd [6]: < 0.2 nM
- koff [6]: < 3e-05 s⁻¹
- kon [6]: 161000 M⁻¹ s⁻¹
- Kd [7]: ≤ 0.2 nM
- koff [7]: 1.82e-05 s⁻¹
- kon [7]: 257000 M⁻¹ s⁻¹
- Kd [8]: ≤ 0.2 nM
- koff [8]: ≤ 2e-05 s⁻¹
- kon [8]: 172000 M⁻¹ s⁻¹
- Kd [9]: ≤ 0.2 nM
- koff [9]: ≤ 2e-05 s⁻¹
- kon [9]: 341000 M⁻¹ s⁻¹
- EC50 [10]: 0.205 nM
B1: ADWA11 2.4 Fab (Fab, V domains shown)
VH: EVQLVESGGGLVQPGGSLRLSCAASGFNIKDYYMNWVRQAPGKGLEWVGWIDPDQGNTIYEPKFQGRFTISADTSKNSAYLQMNSLRAEDTAVYYCARRLLMDYWGQGTLVTVSS
VL: DIQMTQSPSSLSASVGDRVTITCRSTKSLSHFNGNTYLFWYQQKPGKAPKRLIYYMSSLASGVPSRFSGSGSGTDFTLTISSLQPEDFATYYCQQSLEYPFTFGGGTKVEIK
notes: Fab; also called ADWA11 5-2 2.4; ADWA11_5-2 2.4 Fab

From US20200079855A1 (Pfizer, published 2020)
